Test results reported in PMC9281127.

Molecular target: His-tagged PD-L1 (programmed death-ligand 1) (UniProt Q9NZQ7)
Test: co-immunoprecipitation (IP: His, IB: Flag)
Details: co-transfected plasmids, parent: 1.0

Sequence of UniProt Q9NZQ7 (Q9NZQ7 19-290): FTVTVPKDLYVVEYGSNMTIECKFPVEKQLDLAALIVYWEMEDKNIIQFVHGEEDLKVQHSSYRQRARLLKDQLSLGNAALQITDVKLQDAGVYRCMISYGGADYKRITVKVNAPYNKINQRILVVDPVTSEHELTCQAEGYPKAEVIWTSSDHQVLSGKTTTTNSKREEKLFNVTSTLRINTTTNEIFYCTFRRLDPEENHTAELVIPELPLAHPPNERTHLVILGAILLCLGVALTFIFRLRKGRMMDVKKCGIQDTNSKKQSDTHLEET

## Flag-tagged ZG16 (zymogen granule protein 16) (from UniProt O60844) K36A; R37A; K79A; R53A; R55A
HCT116 cells
  ratio to parent: 0.6
SW480 cells
  ratio to parent: 0.5
